Experimental data published in article PMC2643475.

Experiments:
[1] = molecular target: α5β1-integrin (human (endogenous in T-HEp3)) (UniProt P05556)
[2] = molecular target: α5β1-integrin (human (endogenous in T-HEp3)) (UniProt P05556); remark: listed apart in the source
[3] = molecular target: α5β1-integrin (human (endogenous in T-HEp3)) (UniProt P05556); remark: listed apart in the source
[4] = molecular target: α5β1-integrin (human (endogenous in T-HEp3)) (UniProt P05556); assay: co-IP; as a1, with 2.5 µM compound MS#479 added for the last 15 min of the IP

Chain of UniProt P05556 (P05556 whole entry, looked up): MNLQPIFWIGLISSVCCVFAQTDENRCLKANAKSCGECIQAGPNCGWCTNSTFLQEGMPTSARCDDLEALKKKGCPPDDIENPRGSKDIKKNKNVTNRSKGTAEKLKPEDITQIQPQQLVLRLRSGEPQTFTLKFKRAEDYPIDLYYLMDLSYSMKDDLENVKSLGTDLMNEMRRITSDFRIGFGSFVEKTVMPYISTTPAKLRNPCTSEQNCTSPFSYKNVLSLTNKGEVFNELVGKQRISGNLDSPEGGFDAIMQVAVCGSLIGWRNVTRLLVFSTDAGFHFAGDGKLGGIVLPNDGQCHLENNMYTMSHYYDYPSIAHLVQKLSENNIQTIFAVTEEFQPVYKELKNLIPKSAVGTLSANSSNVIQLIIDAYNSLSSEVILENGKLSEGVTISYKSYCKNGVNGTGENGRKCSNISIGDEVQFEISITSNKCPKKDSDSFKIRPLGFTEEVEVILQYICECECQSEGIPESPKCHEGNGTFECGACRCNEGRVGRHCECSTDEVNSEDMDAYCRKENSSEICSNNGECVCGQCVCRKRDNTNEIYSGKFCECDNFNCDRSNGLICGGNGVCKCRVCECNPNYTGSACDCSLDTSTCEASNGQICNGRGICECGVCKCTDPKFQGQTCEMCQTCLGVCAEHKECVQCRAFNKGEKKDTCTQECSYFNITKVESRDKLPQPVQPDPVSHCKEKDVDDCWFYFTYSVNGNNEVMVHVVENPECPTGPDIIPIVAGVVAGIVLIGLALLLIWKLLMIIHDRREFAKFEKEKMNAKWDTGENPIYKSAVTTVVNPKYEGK

With “urokinase receptor (uPAR) (from UniProt Q03405 23-305)” the Elk1-GAL4 luciferase reporter of ERK activity in T-HEp3 cells treated for 16 hrs with 5 µM MS#479; inhibition against untreated control [1] was over 60%, the binding of HUTS-4 antibody (active conformation of β1 integrin) to T-HEp3 cells by FACS with 5 and 50 µM MS#479 or MS#305 [2] was 15% and the luciferase activity (ERK reporter, units per mg of tumor protein) in T-HEp3 tumors on chick embryo CAMs treated daily with 10 µM MS#479; inhibition against diluent [3] was 85%. The percent reduction of the uPAR/integrin association with 2.5 µM MS#479 [4] was over 70%.
